In paper PMC12102759:

B1: MBOAT1 peptide 17-32 (Lysophospholipid acyltransferase 1), 16-mer library wild type / NSP3 ADRP (ORF1ab Nsp3b ADRP, residues 1023-1192) (parent)
chain 1: STYLHPLSELLGIPLD
chain 2: not shown
B2: NCOA2 peptide 1075-1090 (Nuclear receptor coactivator 2), 16-mer library wild type / NSP3 UBl1 (ORF1ab Nsp3a Ub1, residues 819-925) (parent)
chain 1: DEGALLDQLYLALRNF
chain 2: APTKVTFGDDTVIEVQGYKSVNITFELDERIDKVLNEKCSAYTVELGTEVNEFACVVADAVIKTLQPVSELLTPLGIDLDEWSMATYYLFDESGEFKLASHMYCSFY

Variants of: B1
Conditions: with NSP3 ADRP (ORF1ab Nsp3b ADRP, residues 1023-1192); bait immobilised on MaxiSorp plates (10 µg), library pre-cleared on GST, 2 h binding at 4 °C, five washes; one round per day, days 1-4; value from days 2 and 3; keep out of graded; scale: average fractional NGS count over selection days 2 and 3

Screen value of substitutions, site by site:
chain 1 L4: N 0, H 0.000101, S 0, V 0.000192, A 1.65e-05, P 7.55e-05, Y 0.000191, R 0, F 0.000245, D 0, W 0.000705, E 0, M 8.68e-05
chain 1 E9: T 0, H 0, R 0, Y 0, G 0, S 0, I 0, N 0, V 0, M 0, L 0
chain 1 T2: S 5.82e-05, V 0.000388, F 0.00217, K 0, Y 0.00544, E 1.15e-05, R 0, A 0.000138, L 0.000208, Q 4.36e-05, W 2.61e-05, H 0.000152, I 2.27e-05
chain 1 P14: T 0.000186, Q 3.28e-05, D 0.000131, S 1.48e-05, N 3.9e-05, I 2.27e-05, E 7.55e-05, F 0, G 0.000153, M 0.00294, Y 1.08e-05, R 0
chain 1 L10: Y 0.157, K 0, T 0, I 1.63e-05, F 0.00233, Q 0, R 0, G 0, N 1.09e-05, M 0.000281, V 0, S 4.6e-05, H 3e-05
chain 1 I13: F 0.00253, Q 0.00199, A 5.81e-05, T 3.35e-05, D 0, V 3.18e-05, K 0, L 0.00192, R 1.08e-05, H 8.18e-05, N 3.03e-05, W 0.00073, Y 0.00165
chain 1 H5: I 0, S 5.25e-05, M 0, Q 0, L 0, N 0.0049
chain 1 G12: D 0, M 0.000127, S 0.000443, P 5.99e-05, I 5.57e-05, W 3.64e-05, N 5.25e-05, V 0, A 0.00306, Q 0.000576, H 0.000369
chain 1 S8: N 0, G 0
chain 1 L11: Q 0, G 7.04e-06, M 1.65e-05, A 8.96e-05, H 0, S 3.31e-05, R 4.2e-05, N 2.27e-05, Y 0.00171, I 0.000109, W 0.0297
chain 1 Y3: T 3.8e-05, G 0.000695, A 0.00112, F 0, L 0, W 0, M 0.000117, S 2.54e-05, I 0, D 0.000184, N 3.37e-05, H 3.26e-05, E 2.37e-05
chain 1 L7: A 0, I 0, M 0
chain 1 S1: W 0.000263, A 0.000215, H 0.000511, T 9.2e-05, E 0.00035, D 0.000236, R 0, P 0.000375, Q 0.000187, Y 0.00667, M 9.76e-05, I 0.000426, L 0.000154, F 0.000157, N 0.000536, G 0.00039, V 0.000869
chain 1 L15: I 0.000505, V 0.000529, A 0, P 0, W 8.57e-05, M 0.000121, Q 0, E 0, Y 0.000938, T 9.33e-05

Variants of: B2
Conditions: with NSP3 UBl1 (ORF1ab Nsp3a Ub1, residues 819-925); bait immobilised on MaxiSorp plates (10 µg), library pre-cleared on GST, 2 h binding at 4 °C, five washes; one round per day, days 1-4; value from days 2 and 3; keep out of graded; scale: average fractional NGS count over selection days 2 and 3

Screen value, by site and new letter:
chain 1 A4: Y 0.00107, L 7.15e-06
chain 1 L9: I 7.34e-06, K 0, T 0, H 0, V 1.9e-05
chain 1 Q8: G 8.24e-06, P 1.57e-05
chain 1 L6: G 0, D 0, E 0
chain 1 N15: L 0.000158, I 2.73e-05, F 0.113, A 1.68e-05, V 0.00016, H 5.47e-06
chain 1 L11: S 0.000175
